# Columns and labels:
# Test in all cases: flow cytometry on transfected cells, IgG
# [1] = target: human CD33 F43L (human) (UniProt P20138)
# [2] = target: human CD33 F43V (human) (UniProt P20138)
# [3] = target: human CD33 F44D (human) (UniProt P20138)
# [4] = target: human CD33 F44H (human) (UniProt P20138)
# [5] = target: human CD33 F44Q (human) (UniProt P20138)
# [6] = target: human CD33 F44T (human) (UniProt P20138)
# [7] = target: human CD33 F44V (human) (UniProt P20138)
# [8] = target: human CD33 H45Y (human) (UniProt P20138)
# [9] = target: human CD33 I47F (human) (UniProt P20138)
# [10] = target: human CD33 I47G (human) (UniProt P20138)
# [11] = target: human CD33 I47P (human) (UniProt P20138)
# [12] = target: human CD33 I47Q (human) (UniProt P20138)
# [13] = target: human CD33 I47R (human) (UniProt P20138)
# [14] = target: human CD33 I47T (human) (UniProt P20138)
# [15] = target: human CD33 I47W (human) (UniProt P20138)
# [16] = target: human CD33 I47Y (human) (UniProt P20138)
# [17] = target: human CD33 P46D (human) (UniProt P20138)
# [18] = target: human CD33 P46F (human) (UniProt P20138)
# [19] = target: human CD33 P46H (human) (UniProt P20138)
# [20] = target: human CD33 P46L (human) (UniProt P20138)
# [21] = target: human CD33 P46R (human) (UniProt P20138)
# [22] = target: human CD33 P46S (human) (UniProt P20138)
# [23] = target: human CD33 P46Y (human) (UniProt P20138)
# [24] = target: human CD33 P48D (human) (UniProt P20138)
# [25] = target: human CD33 P48F (human) (UniProt P20138)
# [26] = target: human CD33 P48G (human) (UniProt P20138)
# [27] = target: human CD33 P48H (human) (UniProt P20138)
# [28] = target: human CD33 P48K (human) (UniProt P20138)
# [29] = target: human CD33 P48L (human) (UniProt P20138)
# [30] = target: human CD33 P48N (human) (UniProt P20138)
# [31] = target: human CD33 P48Q (human) (UniProt P20138)
# [32] = target: human CD33 P48S (human) (UniProt P20138)
# [33] = target: human CD33 P48T (human) (UniProt P20138)
# [34] = target: human CD33 P48V (human) (UniProt P20138)
# [35] = target: human CD33 P48W (human) (UniProt P20138)
# [36] = target: human CD33 P48Y (human) (UniProt P20138)
# [37] = target: human CD33 T42N (human) (UniProt P20138)
# [38] = target: human CD33 Y49C (human) (UniProt P20138)
# [39] = target: human CD33 Y49G (human) (UniProt P20138)
# [40] = target: human CD33 Y49I (human) (UniProt P20138)
# [41] = target: human CD33 Y49P (human) (UniProt P20138)
# [42] = target: human CD33 Y49R (human) (UniProt P20138)
# [43] = target: human CD33 Y49V (human) (UniProt P20138)
# [44] = target: human CD33 Y50D (human) (UniProt P20138)
# [45] = target: human CD33 Y50I (human) (UniProt P20138)
# [46] = target: human CD33 Y50L (human) (UniProt P20138)
# [47] = target: human CD33 Y50S (human) (UniProt P20138)
# Sequence of human CD33 P48T (human) (P20138 18-364 P48T limits assumed): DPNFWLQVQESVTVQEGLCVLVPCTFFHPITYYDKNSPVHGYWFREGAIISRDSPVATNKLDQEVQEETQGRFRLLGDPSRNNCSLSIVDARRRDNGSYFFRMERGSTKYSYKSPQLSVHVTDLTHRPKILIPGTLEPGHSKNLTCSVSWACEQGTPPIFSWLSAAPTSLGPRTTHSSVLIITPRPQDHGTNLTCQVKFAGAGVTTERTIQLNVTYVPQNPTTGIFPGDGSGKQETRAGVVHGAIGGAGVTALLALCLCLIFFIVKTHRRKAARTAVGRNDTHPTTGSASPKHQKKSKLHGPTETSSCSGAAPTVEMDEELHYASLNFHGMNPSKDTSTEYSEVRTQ
# Sequence of human CD33 P46Y (human) (P20138 18-364 P46Y limits assumed): as the sequence (P20138 18-364 P48T limits assumed) above, with P29Y, T31P counted along it
# Sequence of human CD33 P48N (human) (P20138 18-364 P48N limits assumed): as the sequence (P20138 18-364 P48T limits assumed) above, with T31N counted along it
# Sequence of human CD33 H45Y (human) (P20138 18-364 H45Y limits assumed): as the sequence (P20138 18-364 P48T limits assumed) above, with H28Y, T31P counted along it
# Sequence of human CD33 I47Q (human) (P20138 18-364 I47Q limits assumed): as the sequence (P20138 18-364 P48T limits assumed) above, with I30Q, T31P counted along it
# Sequence of human CD33 P48F (human) (P20138 18-364 P48F limits assumed): as the sequence (P20138 18-364 P48T limits assumed) above, with T31F counted along it
# Sequence of human CD33 I47F (human) (P20138 18-364 I47F limits assumed): as the sequence (P20138 18-364 P48T limits assumed) above, with I30F, T31P counted along it
# Sequence of human CD33 I47T (human) (P20138 18-364 I47T limits assumed): as the sequence (P20138 18-364 P48T limits assumed) above, with I30T, T31P counted along it
# Sequence of human CD33 P48D (human) (P20138 18-364 P48D limits assumed): as the sequence (P20138 18-364 P48T limits assumed) above, with T31D counted along it
# Sequence of human CD33 I47P (human) (P20138 18-364 I47P limits assumed): as the sequence (P20138 18-364 P48T limits assumed) above, with I30P, T31P counted along it
# Sequence of human CD33 P48S (human) (P20138 18-364 P48S limits assumed): as the sequence (P20138 18-364 P48T limits assumed) above, with T31S counted along it
# Sequence of human CD33 Y50D (human) (P20138 18-364 Y50D limits assumed): as the sequence (P20138 18-364 P48T limits assumed) above, with T31P, Y33D counted along it
# Sequence of human CD33 Y50L (human) (P20138 18-364 Y50L limits assumed): as the sequence (P20138 18-364 P48T limits assumed) above, with T31P, Y33L counted along it
# Sequence of human CD33 P46L (human) (P20138 18-364 P46L limits assumed): as the sequence (P20138 18-364 P48T limits assumed) above, with P29L, T31P counted along it
substance,measurement,setting,value
Refmab #7 (WM53) (antibody),Mean % WT Binding,[1],94 % WT binding
same,Mean % WT Binding,[2],73.4 % WT binding
same,Mean % WT Binding,[3],9.5 % WT binding
same,Mean % WT Binding,[4],82.4 % WT binding
same,Mean % WT Binding,[5],74.8 % WT binding
same,Mean % WT Binding,[6],31.7 % WT binding
same,Mean % WT Binding,[7],36.1 % WT binding
same,Mean % WT Binding,[8],75.7 % WT binding
same,Mean % WT Binding,[9],85.2 % WT binding
same,Mean % WT Binding,[10],15.1 % WT binding
same,Mean % WT Binding,[11],1.2 % WT binding
same,Mean % WT Binding,[12],8.2 % WT binding
same,Mean % WT Binding,[13],2 % WT binding
same,Mean % WT Binding,[14],32.7 % WT binding
same,Mean % WT Binding,[15],45.4 % WT binding
same,Mean % WT Binding,[16],79.6 % WT binding
same,Mean % WT Binding,[17],15.9 % WT binding
same,Mean % WT Binding,[18],23 % WT binding
same,Mean % WT Binding,[19],94.3 % WT binding
same,Mean % WT Binding,[20],66.8 % WT binding
same,Mean % WT Binding,[21],33.4 % WT binding
same,Mean % WT Binding,[22],96.4 % WT binding
same,Mean % WT Binding,[23],8.6 % WT binding
same,Mean % WT Binding,[24],0.1 % WT binding
same,Mean % WT Binding,[25],0.2 % WT binding
same,Mean % WT Binding,[26],13.3 % WT binding
same,Mean % WT Binding,[27],1.6 % WT binding
same,Mean % WT Binding,[28],1.6 % WT binding
same,Mean % WT Binding,[29],0.3 % WT binding
same,Mean % WT Binding,[30],4.3 % WT binding
same,Mean % WT Binding,[31],1.3 % WT binding
same,Mean % WT Binding,[32],2.6 % WT binding
same,Mean % WT Binding,[33],1.6 % WT binding
same,Mean % WT Binding,[34],0.9 % WT binding
same,Mean % WT Binding,[35],0.7 % WT binding
same,Mean % WT Binding,[36],0.5 % WT binding
same,Mean % WT Binding,[37],95.4 % WT binding
same,Mean % WT Binding,[38],0.6 % WT binding
same,Mean % WT Binding,[39],20.5 % WT binding
same,Mean % WT Binding,[40],0.2 % WT binding
same,Mean % WT Binding,[41],11.7 % WT binding
same,Mean % WT Binding,[42],1.6 % WT binding
same,Mean % WT Binding,[43],0.9 % WT binding
same,Mean % WT Binding,[44],1.2 % WT binding
same,Mean % WT Binding,[45],5.1 % WT binding
same,Mean % WT Binding,[46],4.7 % WT binding
same,Mean % WT Binding,[47],7.7 % WT binding
